Source: patent EP1674110A1 (NOVO NORDISK A/S, dated 2000)

B1: native human heparin-binding protein (other)
chain: IVGGRKARPRQFPFLASIQNQGRHFCGGALIHARFVMTAASCFQSQNPGVSTVVLGAYDLRRRERQSRQTFSISSMSENGYDPQQNLNDLMLLQLDREANLTSSVTILPLPLQNATVEAGTRCQVAGWGSQRSGGRLSRFPRFVNVTVTPEDQCRPNNVCTGVLTRRGGICNGDGGTPLVCEGLAHGVASFSLGPCGRGPDFFTRVALFRDWIDGVLNNPGP
notes: also called HBP; hHBP
B2: [G175Q]HBP (other)
chain: IVGGRKARPRQFPFLASIQNQGRHFCGGALIHARFVMTAASCFQSQNPGVSTVVLGAYDLRRRERQSRQTFSISSMSENGYDPQQNLNDLMLLQLDREANLTSSVTILPLPLQNATVEAGTRCQVAGWGSQRSGGRLSRFPRFVNVTVTPEDQCRPNNVCTGVLTRRGGICNGDQGTPLVCEGLAHGVASFSLGPCGRGPDFFTRVALFRDWIDGVLNNPGP
notes: also called [G175Q]HBP mutant
B3: [R23S,F25E]HBP (other)
chain: IVGGRKARPRQFPFLASIQNQGSHECGGALIHARFVMTAASCFQSQNPGVSTVVLGAYDLRRRERQSRQTFSISSMSENGYDPQQNLNDLMLLQLDREANLTSSVTILPLPLQNATVEAGTRCQVAGWGSQRSGGRLSRFPRFVNVTVTPEDQCRPNNVCTGVLTRRGGICNGDGGTPLVCEGLAHGVASFSLGPCGRGPDFFTRVALFRDWIDGVLNNPGP
notes: Expressed in sf9 insect cells; also called [R23S,F25E]HBP mutant
B4: HBP mutant (G175N) (other)
chain: IVGGRKARPRQFPFLASIQNQGRHFCGGALIHARFVMTAASCFQSQNPGVSTVVLGAYDLRRRERQSRQTFSISSMSENGYDPQQNLNDLMLLQLDREANLTSSVTILPLPLQNATVEAGTRCQVAGWGSQRSGGRLSRFPRFVNVTVTPEDQCRPNNVCTGVLTRRGGICNGDNGTPLVCEGLAHGVASFSLGPCGRGPDFFTRVALFRDWIDGVLNNPGP

Experiments:
[1] = biological target: T1, bovine pancreatic trypsin inhibitor (bovine, UniProt P00974 36-93); experiment: scintillation proximity assay with 125I-BPTI
[2] = biological target: T1, bovine pancreatic trypsin inhibitor; experiment: not described

| Binder | binding result [1] | binding result [2] |
| --- | --- | --- |
| B1 | binds | – |
| B2 | no binding | – |
| B3 | binds | – |
| B4 | – | no binding |
